According to US20250064958A1 (Eli Lilly, published 2025):

Experiments:
[1] = target: T1, human TfR ECD (human, UniProt P02786 89-760); assay: SPR, Biacore 8K, 37 C, TfR ECD immobilized on CM4 chip, TBP as analyte, 2-state binding model, n = 3
T1 construct: extracellular domain; also called human Transferrin Receptor 1 extracellular domain
Experimental: (§1) Target human and Cynomolgous TfR ECDs were immobilized on a CM4 chip (Cytiva P/N 29104989) using standard NHS-EDC amine coupling. The TfR binding proteins were prepared at a final concentration of 0.3, 0.1, 0.033, 0.01, 0.0033, 0.001, 0.00033, 0.0001 μM respectively by dilution of stock solution into running buffer.
(§2) Binding analysis was performed in a multi-cycle kinetics manner. Each analysis cycle consists of (1) injection of the lowest to highest concentration proteins over all Fc at 50 μL/min for 140 seconds followed by return to buffer flow for 400 seconds to monitor dissociation phase; (2) regeneration of chip surfaces with injection of 3M magnesium chloride, for 30 seconds at 100 μL/min over all cells; and (3) equilibration of chip surfaces with a 50 μL (30-sec) injection of HBS-EP+. Data were processed using standard double-referencing and fit to a 2-state binding model using Biacore 8K Evaluation software, to determine the association rate (kₒₙ, M⁻¹s⁻¹ units), dissociation rate (koff, s⁻¹ units), and Rₘₐₓ (RU units). The equilibrium dissociation constant (KD) is calculated from the relationship KD=koff/kₒₙ, and is in molar units.

[2] = target: T2, Cynomolgous TfR ECD (Cynomolgus); assay: as above
T2 chain: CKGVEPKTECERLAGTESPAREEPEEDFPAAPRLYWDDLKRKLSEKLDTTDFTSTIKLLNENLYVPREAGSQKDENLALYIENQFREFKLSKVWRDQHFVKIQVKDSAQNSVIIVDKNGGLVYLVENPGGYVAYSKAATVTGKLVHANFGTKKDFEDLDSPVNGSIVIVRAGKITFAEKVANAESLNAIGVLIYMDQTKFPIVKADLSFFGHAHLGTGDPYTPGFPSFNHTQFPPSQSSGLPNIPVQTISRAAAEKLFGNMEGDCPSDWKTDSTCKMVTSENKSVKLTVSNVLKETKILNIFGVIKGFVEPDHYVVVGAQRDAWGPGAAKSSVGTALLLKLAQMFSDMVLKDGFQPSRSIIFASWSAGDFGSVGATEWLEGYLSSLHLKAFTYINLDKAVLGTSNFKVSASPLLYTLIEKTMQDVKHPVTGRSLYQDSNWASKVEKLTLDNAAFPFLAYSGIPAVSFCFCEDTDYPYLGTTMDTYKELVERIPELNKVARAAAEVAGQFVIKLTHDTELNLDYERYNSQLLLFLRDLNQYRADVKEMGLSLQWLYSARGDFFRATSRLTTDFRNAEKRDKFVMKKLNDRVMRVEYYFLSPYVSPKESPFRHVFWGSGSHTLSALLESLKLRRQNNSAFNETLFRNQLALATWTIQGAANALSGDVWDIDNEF
Experimental: as §1, §2

Kd [1]: 154 nM
Kd [2]: 300 nM
B1: TBP4 (One Arm Heteromab 1, A378C) (antibody, human IgG4 S228P, kappa, F234A L235A)
heavy: EVQLVESGGGLVKPGGSLRLSCVASGFTFSSYSMNWVRQAPGKGLEWVSSISSSSSYIYYADSVKGRFTISRDNAKNSLYLQMNSLRAEDTAVYYCARRHGYSNSDAFDNWGQGTLVTVSSASTKGPSVFPLAPCSRSTSESTAALGCLVKDYFPEPVTVSWNSGALTSGVHTFPAVLQSSGLYSLSSVVTVPSSSLGTKTYTCNVDHKPSNTKVDKRVESKYGPPCPPCPAPEAAGGPSVFLFPPKPKDTLMISRTPEVTCVVVDVSQEDPEVQFNWYVDGVEVHNAKTKPREEQFNSTYRVVSVLTVLHQDWLNGKEYKCKVSNKGLPSSIEKTISKAKGQPREPQVSTLPPSQEEMTKNQVSLMCLVYGFYPSDICVEWESNGQPENNYKTTPPVLDSDGSFFLYSVLTVDKSRWQEGNVFSCSVMHEALHNHYTQKSLSLSLG
light: DIQMTQSPSAMSASVGDRVTITCRASQGISHYLVWFQQKPGKVPKRLIYAASSLQSGVPSRFSGSGSGTEFTLTISSLQPEDFATYYCLQHNSYPWTFGQGTKVEIKRTVAAPSVFIFPPSDEQLKSGTASVVCLLNNFYPREAKVQWKVDNALQSGNSQESVTEQDSKDSTYSLSSTLTLSKADYEKHKVYACEVTHQGLSSPVTKSFNRGEC
chain: ESKYGPPCPPCPAPEAAGGPSVFLFPPKPKDTLMISRTPEVTCVVVDVSQEDPEVQFNWYVDGVEVHNAKTKPREEQFNSTYRVVSVLTVLHQDWLNGKEYKCKVSNKGLPSSIEKTISKAKGQPREPQVYTLPPSQGDMTKNQVQLTCLVKGFYPSDICVEWESNGQPENNYKTTPPVLDSDGSFFLASRLTVDKSRWQEGNVFSCSVMHEALHNHYTQKSLSLSLG
notes: One-arm heteromab, IgG4 PAA, monovalent for human TfR; also called OAH1
